Data set [1] is described as follows: Foaming properties (Foamscan). The data set is classed as physicochemical. Conditions: for foam volume stability: over 30 min. As to the method: Foaming properties of samples (prepared as described in example 1) were evaluated using the standardized method proposed by Guillerme C, Loisel W, Bertrand D, Popineau Y. Study of foam stability by video image analysis: Relationship with the quantity of liquid in the foams. 1993. J Text Stud, 24, 287-302. The apparatus used was a standard version of the Foamscan™ from Teclis-ITConcept (Longessaigne, France). The principle of the method is to foam a definite quantity of protein dispersion by infusing gas into it through a glass frit of specific porosity. The gas flow and duration of the bubbling are controlled. The foam is generated on the surface of the liquid and it rises in the glass tube where its height is followed in real time by image analysis using a charged-coupled device (CCD) camera. The amount of liquid incorporated into the foam and the drainage rate are followed by measuring the conductivity as a function of time and with reference to the conductivity of the solution before bubbling, in the cuvette (with the remaining liquid phase), and at electrodes placed at different heights of the tube (Kato A, Takahashi A, Matsudomi N, Kobayashi K. Determination of foaming properties of proteins by conductivity measurements. 1983. J Food Sci, 48, 62-65).
BLG-AITC conjugates were prepared as described in example 1 and then acidified to pH 7.0 or 4.0 by adding 1M HCl. The amount of HCl added was ˜0.02% and ˜0.8% of the total volume, for neutral and acidic pH adjustment, respectively. 12 mL of each sample at both pHs, was put into 12 mL-glass vial and heated on 85° C. for 15 min, in addition to 5 min necessary for temperature in the vial to reach 85° C. The heating was done without agitation, in a temperature-controlled water-bath. Subsequently, samples were let to cool down at room temperature over 40 minutes under a mild agitation, and then put on ice until further analysis.
A volume of 20 mL of the sample solution (non-heated and heated BLG-AITC covalent complexes with the AITC to BLG molar ratio 0.5, 1 and 2, at both pH), diluted to 55 μM BLG (0.1%) was placed in the cuvette. Nitrogen at the flow rate 80 mL/min was bubbled in through the glass frit of porosity 4, creating the air bubbles with diameters between 10 and 16 μm. This flow rate allowed efficient foam formation before strong gravitational drainage occurred. The bubbling was stopped when the foam volume of 110 cm^3 was reached. Subsequently, foam capacity (FC=volume of foam/volume of gas injected) and foam expansion (FE=volume of the foam/volume of the liquid in the foam) were calculated. Foam volume and liquid stability (time for the foam to drain 50% of its initial liquid content) were followed over next 30 min at 24±1° C.

The nature of data set [2]: Emulsifying properties, 10% sunflower oil-in-water emulsions, stability on storage. The data set is classed as physicochemical. The conditions noted are these: 10% sunflower oil; molar ratio 1:1, 0.25 mM BLG; 33 days of storage at 4° C.; neutral or acidic pH, with or without heat treatment. As to the method: Emulsifying properties of BLG-AITC conjugates, non-heated and heated at pH 7.0 and 4.0 (prepared as described in examples 1 and 2), were evaluated by preparing emulsions containing 10% (w/w) of “high oleic” sunflower oil (Oleifico SABO, Manno, Switzerland). Samples containing BLG-AITC conjugates in the equimolar ratio were diluted to 0.25 mM BLG and mixed with oil in a pyrex tube (D 25 mm, V 35 mL) to a final weight of 20 g. They were pre-homogenized using an Ultra Turrax® T25 equipped with a S25N-10G dispersing head (IKA-Werke, Staufen, Germany) rotating at 16,000 rpm for 1 minute. Homogenization of emulsions was completed using an ultrasonic processor (Hielscher UP400S, power 400 W, frequency 24 kHz) and a sonotrode (diameter 7 mm, approx. length 100 mm, titanium) at room temperature for 75 seconds and 75% amplitude of the ultrasound maximal power. This emulsification time was enough to disperse the oil in small droplets and to avoid excessive heating of the sample.
Stability of emulsions to creaming and flocculation was followed over 33 days of storage at 4° C.

Data set [3] deals with Escherichia coli. Description: Antimicrobial activity, optical density decrease at 600 nm. The data set is classed as cell-based. The conditions noted are these: 0.5 mM BLG, AITC/BLG molar ratio 1 to 20; 24 h at 37° C.; OD 600 nm. As for the experimental part: (§1) Antimicrobial properties of BLG-AITC conjugates were tested against Escherichia coli and Staphylococcus aureus. Single colony of each bacteria strain, previously grown on agar plates, was inoculated into 10 mL of brain-heart infusion (BHI) broth and incubated 24 h at 37° C. under agitation. For antimicrobial properties evaluation these pre-cultures were diluted 100 times in BHI broth.
(§2) BLG-AITC covalent complexes, with the AITC to BLG molar ratio 1, 2, 10 and 20, were prepared as described in the example 1 with the difference that 200 mM AITC solution was prepared in DMSO. Samples were subsequently acidified to pH 7.0 and then concentrated 5 times by using Centrisart® I centrifugal ultrafiltration units with cellulose triacetate ultrafilters having the molecular weight cut-off of 10 kDa (Sartorious, Germany) according to manufactures instructions.
(§3) An aliquot of 600 μL of concentrated samples was added to 2.4 mL of BHI broth containing E. coli or S. aureus to reach the starting concentrations of BLG (0.5 mM) and corresponding concentration of AITC. Controls in which 600 μL of 5% DMSO or water was added were prepared as well. Test tubes with sample mixtures were then incubated 24 h at 37° C. under stirring. Subsequently, optical densities (OD) of samples were measured at 600 nm. To evaluate the inhibition of bacteria growth, ODs of samples containing BLG-AITC covalent complexes were normalized by OD of the corresponding control and are expressed as the OD decrease in percentage.

Data set [4] has as its system Staphylococcus aureus. The data set is described as above. The class given is cell-based. Conditions: 0.5 mM BLG, AITC/BLG molar ratio 1 to 20, 24 h at 37° C. As to the method: as §1, §2, §3

As to “BLG-AITC covalent complexes: covalent complexes of β-lactoglobulin and allyl isothiocyanate, various AITC to BLG molar ratios”, the “improvement of foam liquid stability (more time stability)” value in data set [1] (foam produced in acidic conditions versus pH 7.0) is “more than 30%”. The foam volume stability result in data set [1] (pH 4.0, without or with heating) is given as “more volume stable than at pH 7.0”; in data set [1] (pH 7.0, with or without heat treatment) it was “volume stable foams”. In addition, the “stability of emulsions to creaming and flocculation” value in data set [2] was “very stable emulsions”. Besides, the “reduction of optical density (OD)” value in data set [3] and in data set [4] (OD 600 nm) was “able to reduce the optical density” in each case. Besides, in data set [4], the “sensitivity compared with E. coli” value was “more sensitive”.

(Values after patent publication US20110319318A1, “COVALENT MILK PROTEIN/ISOTHIOCYANATE COMPLEXES” (NESTEC S.A., priority 2009, published 2011).)
